# Data taken from patent US7166733B2, “O,O'-Amidomalonate and N,O-Amidomalonate platinum complexes” (priority 2000, dated 2007).
# Legend:
# [1] = Platinum release from PBS; type: physicochemical; details: 37° C.
# Protocol: The percent of small platinum species released over time was measured by dissolving about 30 mg of the polymer-platinum conjugate in 15 mL of phosphate buffered saline (10 mM phosphate, 123 mM Cl^−) and incubating the solution at 37° C. in a water bath. At indicated times, 2.0 mL aliquots were transferred to a centrifugal filter with a 3 kDa nominal molecular weight cutoff (Centricon YM-3 from Millipore) and spun until >1.5 mL of filtrate had accumulated. The timed filtrates and the original solution were analyzed for platinum by ICP-OES. The percent of small Pt species released was determined using the formula: ((ppm Pt in filtrate)/(ppm Pt in stock solution))×100.
# [2] = Dependence on pH of the isomer ratio of O,O′—Pt to N,O—Pt chelate (195Pt NMR of timed aliquots); type: physicochemical
# Protocol: The percent of O,O′- and N,O-chelate in timed aliquots of reactions mixtures were determined by removing enough of the reaction mixture (4–15 mL depending on concentration) to give greater than 100 mg of Pt-chelate if only ^195Pt NMR spectroscopy was to be done or about 200 mg if % Pt, and % H2O were also to be determined. The aliquots were purified by ultrafiltration using a Centricon Plus-20 centrifugal filter with a 5 kDa Biomax membrane from Millipore. The charged device was spun at the recommended RCF until less than 1 mL remained. The filtrate was discarded, the retentate was diluted with 15–18 mL water and the sample was centrifuged. This was repeated once more, and the retentate was lyophilized to give the sample for analysis.
# ^195Pt NMR spectra were obtained from a filtered 0.70 mL solution in 93/7 H2O/D2O in a 5 mm tube. Enough sample (80–120 mg) was used to give a solution that was >50 mM in platinum. The probe was tuned for each sample. A pulse width of 90 degrees, an acquisition time of 10 msec, a spectral window of 100 kHz and no delay was used. The transmitter was tuned to approximately midway between the O,O′—Pt and N,O—Pt chelates shifts (−1896 ppm for cis-diammine Pt and at −2450 for DACH—Pt). Between 50,000 and 1 million transients were typically required to obtain a sufficient (>35:1) s/n ratio for the cis-diammine-Pt and DACH=Pt species, respectively. The resulting FID was increasingly left-shifted until a flat baseline was obtained, a 100 Hz line broadening was applied, and a Fourier fill of 2048 was applied before processing. Integral regions were set and the spectrum's baseline was subjected to a spline fit using VNMR software v6.1. The sample was referenced externally to a 100 mM sample of K2PtCl4 in 95/5H2O/D2O and 100 mM HCl at −1624 ppm. This was also used to determine the 90 degree pulse width and T1.
# Four 50 mL Centrifuge tubes were each charged with 1.00 g of p(HPMA)-GFLG-Ama=Pt(NH3)2 (either 100% N,O-chelate) or a 92% O,O-chelate, 8% N,O-chelate mixture. These materials were dissolved in 27 mL Milli-Q water (approx a 4 wt % solution) and adjusted to the pH ranges desired using 1 M NaOH or 5% HClO4 as appropriate. The samples were then heated, with stirring, in a 38° C. water bath and maintained within their specified pH ranges. Timed aliquots were taken and frozen until a suitable time at which point the solutions were concentrated by centrifugal ultrafiltration (one spin down at 4800 rpm, 30° C.) and then transferred to an NMR tube. A small amount of D2O was added to each tube and the ^195Pt NMR spectra were recorded.
# [3] = Single-dose IV maximum tolerated dose study; type: in vivo; details: mice, highest dose with no drug-induced deaths
# Description: For these studies, the MTD was defined as the highest dose evaluated in which no mouse deaths resulted from drug-induced toxicity.
# Bl6FI0 melanoma cells = assay: Clonogenic (colony-formation) assay; type: cell-based, murine; details: 7 days incubation
# Protocol: The relative cytotoxic activity of various O,O′—Pt chelate analogs were evaluated in vitro by means of a clonogenic (colony-formation) assay employing a tissue culture of Bl6FI0 melanoma cells. In this way, the activity of the analogs was compared to that of cisplatin and carboplatin. The effect of conversion to an N,O—Pt chelate was also evaluated. Briefly, cells were seeded into culture dishes and allowed to attach. The cultures were incubated for 7 days in medium containing the desired concentration of the test agent. After fixation, the number of cell clusters containing >50 cells was scored as a colony. Each concentration of test agent was assayed in triplicate. The mean number of colonies in each of the triplicate dishes was divided by the mean number of colonies in the control (no test agent) dishes to obtain a percent survival value for each concentration of test agent. The IC50 (concentration resulting in 50% inhibition of growth) of each of the agents was determined by linear regression analysis using the data values directly above and below the 50% survival point.
# [4] = pH 5.0–5.5, 38° C., 100 mM ClO4^−, 1 h
# [5] = pH 5.0–5.5, 38° C., 100 mM ClO4^−, 5 h
# [6] = pH 5.0–5.5, 38° C., 100 mM ClO4^−, 8 h
# [7] = pH 5.0–5.5, 38° C., 100 mM ClO4^−, 22 h
# [8] = pH 5.0–5.5, 38° C., 100 mM Cl^−, 1 h
# [9] = pH 5.0–5.5, 38° C., 100 mM Cl^−, 5 h
# [10] = pH 5.0–5.5, 38° C., 100 mM Cl^−, 8 h
# [11] = pH 5.0–5.5, 38° C., 100 mM Cl^−, 22 h
substance,measurement,setting,value
"poly(HPMA)-GFLG-Ama=Pt(NH3)2, N,O—Pt chelate [Example 4]",Pt release in PBS,[1]; 3 hours,0.6%
same,Pt release in PBS,[1]; 24 hours,2.0%
same,"N,O— chelate","[2]; pH 3.0–3.5, 38° C., 1 h",2%
same,"O,O— chelate","[2]; pH 3.0–3.5, 38° C., 1 h",98%
same,"N,O— chelate","[2]; pH 3.0–3.5, 38° C., 5 h",0%
same,"O,O— chelate","[2]; pH 3.0–3.5, 38° C., 5 h",100%
same,"N,O— chelate","[2]; pH 3.0–3.5, 38° C., 20 h",0%
same,"O,O— chelate","[2]; pH 3.0–3.5, 38° C., 20 h",100%
same,"N,O— chelate","[2]; pH 4.0–4.5, 38° C., 1 h",55%
same,"O,O— chelate","[2]; pH 4.0–4.5, 38° C., 1 h",45%
same,"N,O— chelate","[2]; pH 4.0–4.5, 38° C., 5 h",44%
same,"O,O— chelate","[2]; pH 4.0–4.5, 38° C., 5 h",56%
same,"N,O— chelate","[2]; pH 4.0–4.5, 38° C., 20 h",32%
same,"O,O— chelate","[2]; pH 4.0–4.5, 38° C., 20 h",68%
same,"N,O— chelate",[2]; [4],90%
same,"O,O— chelate",[2]; [4],10%
same,"N,O— chelate",[2]; [5],88%
same,"O,O— chelate",[2]; [5],12%
same,"N,O— chelate",[2]; [6],77%
same,"O,O— chelate",[2]; [6],23%
same,"N,O— chelate",[2]; [7],75%
same,"O,O— chelate",[2]; [7],25%
same,"N,O— chelate",[2]; [8],91%
same,"O,O— chelate",[2]; [8],9%
same,"N,O— chelate",[2]; [9],92%
same,"O,O— chelate",[2]; [9],8%
same,"N,O— chelate",[2]; [10],89%
same,"O,O— chelate",[2]; [10],11%
same,"N,O— chelate",[2]; [11],87%
same,"O,O— chelate",[2]; [11],13%
same,"N,O— chelate","[2]; pH 5.0–5.5, 38° C., 1 h",94%
same,"O,O— chelate","[2]; pH 5.0–5.5, 38° C., 1 h",6%
same,"N,O— chelate","[2]; pH 5.0–5.5, 38° C., 5 h",85%
same,"O,O— chelate","[2]; pH 5.0–5.5, 38° C., 5 h",15%
same,"N,O— chelate","[2]; pH 5.0–5.5, 38° C., 20 h",81%
same,"O,O— chelate","[2]; pH 5.0–5.5, 38° C., 20 h",19%
same,"N,O— chelate","[2]; pH 6.0–6.5, 38° C., 1 h",100%
same,"O,O— chelate","[2]; pH 6.0–6.5, 38° C., 1 h",0%
same,"N,O— chelate","[2]; pH 6.0–6.5, 38° C., 5 h",100%
same,"O,O— chelate","[2]; pH 6.0–6.5, 38° C., 5 h",0%
same,"N,O— chelate","[2]; pH 6.0–6.5, 38° C., 20 h",100%
same,"O,O— chelate","[2]; pH 6.0–6.5, 38° C., 20 h",0%
same,maximum tolerated dose (MTD),[3],400 mg PVkg
same,IC50,Bl6FI0 melanoma cells,3.4 µM
